Source: article PMC5640855, “ZIC2 Is Essential for Maintenance of Latency and Is a Target of an Immediate Early Protein during Kaposi's Sarcoma-Associated Herpesvirus Lytic Reactivation” (Journal of Virology, 2017)

Biological target: T1, GST-K-Rta (Kaposi's sarcoma-associated herpesvirus …, UniProt F5HCV3 1-691)
T1 construct: also called GST-tagged K-Rta; source: recombinant baculovirus-infected Sf9 cells, purified
T1 sequence: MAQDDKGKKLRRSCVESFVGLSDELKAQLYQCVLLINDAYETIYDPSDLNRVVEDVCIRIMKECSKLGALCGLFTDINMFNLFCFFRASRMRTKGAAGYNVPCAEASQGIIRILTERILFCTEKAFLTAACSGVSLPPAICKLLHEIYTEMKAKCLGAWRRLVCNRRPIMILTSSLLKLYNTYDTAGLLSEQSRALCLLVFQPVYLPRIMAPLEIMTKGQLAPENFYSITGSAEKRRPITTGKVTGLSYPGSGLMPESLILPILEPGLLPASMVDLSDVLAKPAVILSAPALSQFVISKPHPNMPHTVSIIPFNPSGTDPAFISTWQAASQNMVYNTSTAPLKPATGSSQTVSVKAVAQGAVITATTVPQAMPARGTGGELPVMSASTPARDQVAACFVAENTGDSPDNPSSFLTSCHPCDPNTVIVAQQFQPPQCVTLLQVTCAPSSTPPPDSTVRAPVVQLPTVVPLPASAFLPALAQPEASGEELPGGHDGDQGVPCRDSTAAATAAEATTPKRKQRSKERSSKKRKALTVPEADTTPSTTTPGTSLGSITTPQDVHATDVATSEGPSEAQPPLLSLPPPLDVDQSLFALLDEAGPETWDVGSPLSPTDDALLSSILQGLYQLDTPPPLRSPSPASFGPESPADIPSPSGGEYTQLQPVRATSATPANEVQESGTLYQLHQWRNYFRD
Assay: pull-down
Conditions: both partners purified

B1: FLAG-tagged ZIC2 (natural protein, UniProt O95409 1-532, looked up)
chain: MLLDAGPQFPAIGVGSFARHHHHSAAAAAAAAAEMQDRELSLAAAQNGFVDSAAAHMGAFKLNPGAHELSPGQSSAFTSQGPGAYPGSAAAAAAAAALGPHAAHVGSYSGPPFNSTRDFLFRSRGFGDSAPGGGQHGLFGPGAGGLHHAHSDAQGHLLFPGLPEQHGPHGSQNVLNGQMRLGLPGEVFGRSEQYRQVASPRTDPYSAAQLHNQYGPMNMNMGMNMAAAAAHHHHHHHHHPGAFFRYMRQQCIKQELICKWIDPEQLSNPKKSCNKTFSTMHELVTHVSVEHVGGPEQSNHVCFWEECPREGKPFKAKYKLVNHIRVHTGEKPFPCPFPGCGKVFARSENLKIHKRTHTGEKPFQCEFEGCDRRFANSSDRKKHMHVHTSDKPYLCKMCDKSYTHPSSLRKHMKVHESSPQGSESSPAASSGYESSTPPGLVSPSAEPQSSSNLSPAAAAAAAAAAAAAAAVSAVHRGGGSGSGGAGGGSGGGSGSGGGGGGAGGGGGGSSGGGSGTAGGHSGLSSNFNEWYV
notes: ZIC2 (zinc finger protein of the cerebellum 2); cDNA cloned into pFastBac; also called FLAG-ZIC2; source: recombinant baculovirus-infected Sf9 cells, purified
binding result: binds
